Experiments:
HLA-A2 = HLA-A2 expression on CRC organoid lines with and without IFN-γ stimulation (flow cytometry); assay type: cell-based; conditions: HLA-A2 negative CRC organoids, 20 ng/ml recombinant human IFN-γ
Experimental: FIG. 10. HLA-A2 expression on clonally expanded HLA-A2^+ and HLA-A2^− CRC organoid lines. […] Flow cytometry analysis of HLA-A2 expression on normal (left panel), HLA-A2^+ CRC (middle panel) and HLA-A2^− CRC (right panel) lines with and without stimulation with 20 ng/ml recombinant human IFN-γ.
(§1) Cells were sorted as single cells into 96-well plates using a BD FACS Aria (BD Biosciences) cytometer. For flow cytometry, the following antibodies were used (all anti-human): CD8-PE (clone RPA-T8), CD45-PerCP-Cy5.5 (2D1), CD274 (PD-L1)-APC (MIH1) (all BD Biosciences), CD279 (PD-1)-PE (EH12.2H7, Biolegend), HLA-A2^− PE (BB7.2, Santa Cruz).

CD274 (PD-L1) = assay: PD-L1 expression in colon organoid lines upon IFN-γ stimulation (qPCR and flow cytometry); assay type: cell-based; conditions: organoids treated with 20 ng/mL recombinant human IFN-γ
Source text: as §1

B1: IFN-γ: recombinant human interferon gamma used to stimulate organoids (20 ng/mL) (protein, UniProt P01579 24-161, looked up)
Interferon gamma: QDPYVKEAENLKKYFNAGHSDVADNGTLFLGILKNWKEESDRKIMQSQIVSFYFKLFKNFKDDQSIQKSVETIKEDMNVKFFNSNKKKRDDFEKLTNYSVTDLNVQRKAIHELIQVMAELSPAAKTGKRKRSQMLFRG
HLA-A2
  HLA-A2 re-expression: did not trigger HLA-A2 re-expression
CD274 (PD-L1)
  PD-L1 expression on transcript and protein level: dramatically upregulated
